Reference: paper PMC5317272 (The Biochemical journal, 2016)

Legend:
[1] = target: MARK1 kinase–UBA domain fragment (residues 45–371), tag-cleaved (human, UniProt Q9P0L2 45-371); assay: SAXS
[2] = target: MARK1 kinase–UBA domain fragment (residues 45–371), hexahistidine tag intact (human, UniProt Q9P0L2 45-371); assay: SPR
MARK1 kinase–UBA domain fragment (residues 45–371), hexahistidine tag intact, sequence (Q9P0L2 45-371): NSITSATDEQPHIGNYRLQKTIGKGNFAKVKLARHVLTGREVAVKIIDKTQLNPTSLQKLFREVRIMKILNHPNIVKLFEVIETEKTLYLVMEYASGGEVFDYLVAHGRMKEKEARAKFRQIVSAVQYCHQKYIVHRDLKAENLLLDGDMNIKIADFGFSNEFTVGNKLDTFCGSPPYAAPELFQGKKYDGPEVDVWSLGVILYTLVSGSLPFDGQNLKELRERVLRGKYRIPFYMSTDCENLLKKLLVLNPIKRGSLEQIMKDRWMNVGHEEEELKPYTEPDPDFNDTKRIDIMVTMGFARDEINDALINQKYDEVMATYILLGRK

MARK1 kinase–UBA domain fragment (residues 45–371), tag-cleaved, sequence (Q9P0L2 45-371): as above

- stoichiometry N [1]: 1
- Kd [2]: 73 µM
B1: MARK1 KA1 domain (residues 683–795) (domain or fragment)
chain: not shown
